The values that follow come from article PMC3179519.

This assay concerns the target Salmonella SJW1660 flagellin capable of forming L-type straight filaments (Salmonella (S. typhimurium)) (UniProt P06179). Kind of assay: co-sedimentation; monomers of SJW1660 flagellin and FliC(XynA) mixed at 1:1 to 1:5 (w/w) in 20 mM Tris-HCl, 150 mM NaCl (pH 7.8), polymerized with ammonium sulfate (0.4-0.6 M), 2 days at room temperature; centrifuged, pellet dissolved in buffer without AS, SDS-PAGE with densitometry; filaments also seen by dark-field microscopy and AFM.

On to “FliC(XynA) fusion protein (flagellin-xylanase A chimera) (from UniProt P18429 29-213)”, for which the band intensity of FliC(XynA) in the copolymer pellet, 1:1 mixing ratio (FliC band 49.3) came to 49.6 and the band intensity of FliC(XynA) in the copolymer pellet, 1:2 mixing ratio (FliC band 50.7) was 34.2.
